According to PMC6925130, “Cleaved CD31 as a target for in vivo molecular imaging of inflammation” (Scientific Reports, 2019):
Non-standard residues stand in square brackets, D forms with d. Residues, ends and D or L forms follow the SMILES beside them. *: point of attachment. HYNIC = NNc1ccc(C(=O)*)cn1; PEG3 = NCCOCCOCCOCCC(=O)O

Columns and labels:
[1] = system: turpentine injected hindlimb (sterile acute inflammation); test: SPECT/CT and PET/MRI imaging of turpentine oil-induced sterile acute inflammation; type: in vivo, male Wistar rats; conditions: turpentine injected hindlimb / saline injected hindlimb; PET/MRI 1 h p.i., retro-orbital ≈20 MBq; n = 23
Experimental: Two to 3-month-old adult male Wistar rats, weighing 250–300 g were used. The animals were housed in a controlled environment. The procedures and animal care complied with the principles formulated by the National Society for Medical Research. All methods were performed in accordance with the guidelines of the French Directorate of Veterinary Services (authorization: No. 75-214). All methods were approved by the animal ethics committee of the Claude Bernard Institute (APAFIS #14821, Paris, France). Aseptic inflammation was obtained according to a standardized procedure consisting of turpentine oil injection characterized by a massive local influx of activated inflammatory cells[33],[34]. […]
Imaging procedures of ^99mTc-HYNIC-P8RI (D and L) were performed using Single Photon Emission Computed Tomography coupled to X-ray computed tomography (SPECT/CT). […] Reconstructed slices were visually assessed in 3 planes (axial, coronal, and sagittal). […]
Three-dimensional Regions of Interests (3D-ROIs) were placed on the inflammatory muscles and the mean signal per volume unit (kBq/mL) was measured. Assuming a tissue density of 1 g/mL, the radioactivity contained in the ROI was divided by the dose administered to the animal and the volume of the ROI to obtain an imaging ROI-derived % ID/g. […]

in vitro [2] = type: in vitro ADME; conditions: human, plasma
Experimental: Plasma stability was assessed in triplicate at 1, 2 and 4 h after incubation of the radiolabeled D-P8RI peptide (final concentration 100 pmol/mL) in human plasma at 37 °C with RCP ≥94%. After precipitation of plasma proteins with acetonitrile and centrifugation (15000 × g, 10 min), the supernatant was analyzed by RP-HPLC as described in Supplementary Data. Plasma stability was expressed in RCP (%).

in vitro [3] = type: in vitro ADME; conditions: human, plasma; remark: listed apart in the source
Experimental: Protein binding of the purified radiolabeled D-P8RI peptide (final concentration 100 pmol/mL) was determined in triplicate after 0, 0.5, 1, 2, 3 and 4 h of incubation in fresh human plasma (collected in citrate tubes) at 37 °C and analyzed after size exclusion chromatography (illustra Microspin G-50 Columns, Sephadex G-50, GE Healthcare, UK). Simultaneously, radiolabeled peptide was incubated in PBS at 37 °C as a control. G-50 columns were prespun at 2000 × g for 1 min then 20 μL of mixture was added and the column was centrifuged at 2000 × g for 2 min. Columns and eluates were counted on a Wallac Wizard 3″ 1480 (Perkin Elmer, MA, USA), then protein binding was calculated using the following activity (A) ratio: A eluate/(A column + A eluate).

in vivo = test: in vivo; design: species or system male Wistar rats; conditions: male, Wistar, rat, iv, 30 MBq, total radioactivity, Biodistribution
Experimental: Biodistribution of ^99mTc-HYNIC-D-P8RI was performed 15, 30, 90 min and 24 h post-injection. Animals (n = 3 for each time point) were injected intravenously through penis vein with 30 ± 3 MBq of ^99mTc-HYNIC-D-P8RI. They were sacrificed by isoflurane overdose and blood, heart, liver, thyroid, spleen, kidney, brain, intestine and muscle tissues were harvested and counted using a well counter. Results were expressed as the percentage of injected dose per gram of tissue (% ID/g). To characterize radiotracer elimination and potential degradation, rat urine was collected 90 min p.i, passed through a 0.22 µm PVDF filter (Durapore^TM 13 mm, Merck), and analyzed using RP-HPLC as described in Supplementary Data.

physchem = type: physicochemical; conditions: pH 7.2
Experimental: 500 µL of^ 99mTc-HYNIC-D-P8RI in PBS (pH 7.2) was added to 500 µL of octanol in a 1.5 mL conical vial. After 15 min of vortexing, the vial was centrifuged at 5000xg for 3 min. A 100 µL aliquot of both phases was collected in triplicate and counted with a gamma counter then log P values were calculated.

SMILES | Mean signal ratio (TIH/SIH), PET/MRI [1] | remaining at 1 h, 100 pmol/mL (in vitro [2]) [%] | remaining at 2 h, 100 pmol/mL (in vitro [2]) [%] | fraction unbound at 0 h, 100 pmol/mL (in vitro [3]) | fraction unbound at 0.5 h, 100 pmol/mL (in vitro [3]) | tissue uptake at 1.5 h (in vivo; bladder) [%ID/g] | tissue uptake at 0.25 h (in vivo; blood) [%ID/g] | tissue uptake at 24 h (in vivo; blood) [%ID/g] | tissue uptake at 1.5 h (in vivo; kidney) [%ID/g] | logD (physchem)
O=C[C@H]([18F])[C@@H](O)[C@H](O)[C@H](O)CO [[^18F]FDG, 2-deoxy-2-[^18F]fluoro-D-glucose] | 4.49 ± 0.43 |  |  |  |  |  |  |  |  | 
CC(C)C[C@@H](NC(=O)[C@@H](C)NC(=O)[C@H]1CCCN1C(=O)[C@@H](Cc1c[nH]c2ccccc12)NC(=O)[C@@H](CCCCN)NC(=O)CCOCCOCCOCCNC(=O)c1ccc(NN)nc1)C(=O)N[C@H](Cc1ccccc1)C(=O)N[C@@H](C(=O)N[C@H](CCCNC(=N)N)C(=O)O)C(C)C [^99mTc-HYNIC-D-P8RI, metal not drawn] ({HYNIC-PEG3}-[dK][dW][dP][dA][dL][dF][dV][dR]-OH) |  | 93.02 ± 0.04 | 91.05 ± 0.02 | 0.928 | 0.952 | 61.4 ± 13.4 | 9.74 ± 1.21 | 0.04 ± 0.02 | 14 ± 2.93 | -2.92 ± 0.04
